US20070087986A1, “Compositions and methods for enhancing immunity by chemoattractant adjuvants” (priority 2004, published 2007)
Non-standard residues stand in square brackets, D forms with d. No end group written: not given here.

T1: FPRL1 (Homo sapiens, UniProt P25090)
T1 sequence (P25090 1-351): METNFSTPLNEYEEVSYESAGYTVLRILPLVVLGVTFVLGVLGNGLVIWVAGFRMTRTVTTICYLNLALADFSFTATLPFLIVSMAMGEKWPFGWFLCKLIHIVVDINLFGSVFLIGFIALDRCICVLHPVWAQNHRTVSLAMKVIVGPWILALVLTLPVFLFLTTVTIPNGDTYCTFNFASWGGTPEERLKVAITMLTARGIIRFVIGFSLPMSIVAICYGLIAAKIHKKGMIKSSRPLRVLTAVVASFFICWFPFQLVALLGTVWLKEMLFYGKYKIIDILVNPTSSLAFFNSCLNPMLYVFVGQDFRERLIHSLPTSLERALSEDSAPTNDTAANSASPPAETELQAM

B1: mC5a: chemoattractant mC5a (SEQ ID NO: 62) (protein, listed as Homo sapiens)
chain: NLHLLRQKIEEQAAKYKHSVPKKCCYDGARVNFYETCEERVARVTIGPLCIRAFNECCTIANKIRKESPHKPVQLGR

Assays:
[1] = molecular target: T1, FPRL1; assay: FPRL1 activity of SHAAGtide and truncated and other variants; details: in words: high, moderate, low
Source text: In addition to the agonists and antagonists shown in TABLE 4, SHAAGtide polypeptides were also shown to modulate FPRL1 activity. The term “SHAAGtide” includes SHAAGtide polypeptides (shown in TABLE 5), including isolated or purified SHAAGtide polypeptides, proteins or biologically active fragments separated from or recovered from a component of its natural environment; and polynucleotides shown in TABLE 6, truncated variants and other variants thereof, including naturally occurring allelic variants, derivatives and analogs. SHAAGtide polypeptides are derived from the alternatively spliced variant of CKβ8, namely CKβ8-1. CKβ8-1 is a 116 amino acid long polypeptide that includes the sequence of SHAAGtide polypeptides. […]

[2] = tested on: Female BALB/C mice; type: in vivo; details: for levels of antigen specific IgA antibodies: mucosal samples, day 21, intranasal rPA plus adjuvant; for levels of antigen specific IgG antibodies: serum, day 21, intranasal rPA 10 μg plus adjuvant, vs rPA alone

Row | Molecule | FPRL1 Activity [1] | levels of antigen specific IgA antibodies [2] | levels of antigen specific IgG antibodies [2]
1 | WRRKIGPQMTLSHAAG [CCXP7] | Low activity |  | 
2 | MLWRRKIGPQMTLSHAAY [CCXP6] | high |  | 
3 | RRKIGPQMTLSHAAG [CCXP2] | Low |  | 
4 | WRRKIGPQM [CCXP9] | Low activity |  | 
5 | MLWRRKIGPQMTLSHAAG [CCXP1] | sequence high | did not induce significant levels | did not induce significant levels
6 | WRRKIG [CCXP10] | Low activity |  | 
7 | LWRRKIGPQMTLSH [CCXP11] | Moderate |  | 
8 | MLWRRKIGPQMTLSH [CCXP3] | High |  | 
9 | MLWRRKIGPQM [CCXP8] | Moderate |  | 
10 | MLWRRKIGPQMT [CCXP5] | Moderate |  | 
11 | IGPQMTLSHAAG [CCXP4] | Low |  | 
12 | Trp-Lys-Tyr-Met-Val-D-Met-CONH2 (WKYMV[dM]-NH2) [W-tide, WKYMV-(d-Met)-CONH2, synthetic hexapeptide ligand of FPRL1, reference compound] |  | did not induce significant levels | did not induce significant levels
13 | mJE: chemokine mJE (SEQ ID NO: 60), used as chemoattractant adjuvant |  | did not induce significant levels | did not induce significant levels
14 | 5′-TCCATGACGTTCCTGATGCT-3′ (chemistry not given here) [CpG, CpG oligonucleotide, ligand for TLR9, reference compound] |  | did not induce significant levels | did not induce significant levels
15 | B1 |  | did not induce significant levels | did not induce significant levels
